Positions count from the first letter of the chain named.
B1: antibody 323 (antibody, V domains shown)
VH: QVQLVQSGAEVKKPGASVKVSCKVSGYTLTELSMHWVRQAPGKGLEWMGGFDPEDGETIYAQKFQGRVTMTEDTSTDTAYMELSSLRSEDTAVYYCATSTIFAPGGWFDPWGQGTLVTVSS
VL: QSALTQPASVSGSPGQSITISCTGTSSDVGSYNLVSWYQQHPGKAPKLMIYEVSKRPSGVSNRFSGSKSGNTASLTISGLQAEDEADYYCCSYAGSTHYVFGTGTKVTVL
B2: antibody 333 (antibody, V domains shown)
VH: QVHLVESGGGVVLPGRSLRLSCSASQFIFSNYDMHWVRQSPGMGLEWVAGISSDGSDKYYIDSVRGRFTISRDNAKNTLFLQMNSLTTEDTAVYSCAKGGGKFGQYWGRGTLVTVSS
VL: AIQMTQSPSSLSASVGDRVTITCRASQVIRNDLAWFQQKPGEAPNLLVYSASNLQSGVPSRFSGSGSGTDFTLTISSLQPEDFATYYCLQDYSYPYTFGQGTKLDMK
B3: antibody 324 (antibody, V domains shown)
VH: QVQLQESGPGLVKPSGTLSLTCAVSGGSISSSNWWSWVRQPPGKGLEWIGEIYHSGSTNYNPSLKSRVTISVDNSKNQFSLKLSSVTAADTAVYYCARESVAAAGISYYYYGMDVWGQGTTVTVSS
VL: EIVLTQSPGTLSLSPGERATLSCRASQSVSGRYLAWYQQKPGQAPRLLIYGASSRATGIPDRFSGSGSGTDFTLTISRLEPEDFAVYYCQHYGSSPGTFGQGTRLEIK
B4: antibody 328 (antibody, V domains shown)
VH: B3 VH
VL: DIQMTQSPSSLSASVGDRVTITCRASQGIRNDLGWYQQKPGKAPKRLIYAASSLQSGVPSRFSGSGSGTEFTLTVSGLQPEDFATYYCLQYNSSPLTFGGGTKVEIK
B5: antibody 329 (antibody, V domains shown)
VH: EVQLVESGGGLVQPGGSLRLSCAASGFTFSSYWMHWVRQAPGKGLVWVSRINSDGSSTSYADSVKGRFTISRDNAKNTLYLQMNSLRAEDTAVYYCAREGIVATITLDYWGQGTLVTVSS
VL: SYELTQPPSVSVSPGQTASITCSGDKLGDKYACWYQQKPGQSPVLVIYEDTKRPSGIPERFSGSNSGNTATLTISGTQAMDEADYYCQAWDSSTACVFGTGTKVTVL
B6: antibody 342 (antibody, V domains shown)
VH: EVQLVQSGAEVKKPGATVKISCKVSGYTFTDYYMHWVQQAPGKGLEWMGLVDPEDGETIYAEKFQGRVTITADTSTDTAYMELSSLRSEDTAVYYCATGGVSVWFREFPASYSGSYLGYWGQGTLVTVSS
VL: not shown
B7: antibody 320 (antibody, V domains shown)
VH: QVQLVQSGAEVKKPGASVKVSCKASGYTFTSYGISWVRQAPGQGLEWMGWISAYNGNTNYAQKLQGRVTMTTDTSTRTAYMELRSLRSDDTAVYYCARVGCYYDSSGYSCAENFQHWGQGTLVTVSS
VL: QSVLTQPPSVSGAPGQRVTISCTGSSSNIGAGYDVHWYQQLPGTAPKLLIYGNSNRPSGVPDRFSGSKSGTSASLAITGLQAEDEADYYCQSYDSSLSALFGGGTKLTVL
B8: antibody 331 (antibody, V domains shown)
V domain 1: QITLKESGPTLVKPTETLTLTCSFSGFSLTKTGEAAGWIRQAPGRALEWVTVIFWDDDKRYSPSLQNRISVTKDTSKNQVVLRMTNVARFDTGTYFCWAMGGPGKEYFGQGTLVAVSS
V domain 2: QSVLTQPPSVSGAPGQRVTISCTGTSSSIGPYSDVHWYQHVSGKAPRLLIFGNSNRPSGVPDRFSGSKSGTSASLVIAGLQAEDEADYYCQSYDSSLGEIYVFGTGTTVTVL
B9: antibody 339 (antibody, V domains shown)
V domain 1: B8 V domain 1 with K31R, N67S, I69L, S70T, R83T, G93A, L113Q
V domain 2: B8 V domain 2
B10: antibody 340 (antibody, V domains shown)
VH: QVQLVQSGAEVKKPGASVKVSCKASGYTFTSYDINWVRQATGQGLEWMGWMNPNSGNTGYAQKFQGRVTMTRNTSISTAYMELSSLRSEDTAVYYCARGRYCTGGVCWGDWYFDLWGRGTLVTVSS
VL: QSVLTQPPSVSGAPGQRVTISCTGSSSNIGAGYDVHWYQQLPGTAPKFLIYGNSNRPSGVPDRFSGSKSGTSASLAITGLQAEDEADYYCQSYDSSLSGPVFGGGTKLTVL
B11: antibody 337 (antibody, V domains shown)
VH: QVQLVESGGGVVQPGRSLRLSCAASGFTFSSYGMHWVRQAPGKGLEWVAIIWYDGSNKYYADSVKGRFTISRDNSKNTLYLQMNSLRAEDTAVYYCAKDTGGYCSGGSCYPESYFDYWGQGTLVTVSS
VL: SYVLTQPPSVSVAPGKTARITCGGNNIGSKSVHWYQQKPGQAPVLVIYYDSDRPSGIPERFSGSNSGNTATLTINRVEAGDEADYYCQVWDGSSDHLYVFGTGTKVTVL
B12: antibody 332 (antibody, V domains shown)
VH: QVTLRESGPALVKPTQTLTLTCTFSGFSLSTSGMCVSWIRQPPGKALEWLALIDWDDDKYYSTSLKTRLTISKDTSKNQVVLTMTNMDPVDTATYYCARIHDDILTGYHYVDYWGQGTLVTVSS
VL: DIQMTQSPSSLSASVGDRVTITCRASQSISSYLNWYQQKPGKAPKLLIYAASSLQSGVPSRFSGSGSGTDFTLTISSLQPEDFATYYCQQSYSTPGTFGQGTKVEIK
B13: antibody 552 (antibody, V domains shown)
VH: QVQLVQSGAEVKKPGSSVKVSCKASGGTFSSYGISWVRQAPGQGLEWMGRIIPILGIANYAQKFQGRVTITADKSTSTAYMELSSLRSEDTAVYYCARAVYAAGDDDYYYYYGMDVWGQGTTVTVSS
VL: SYELTQPPSVSVSPGQTARITCSGDALPKQYAYWYQQKPGQAPVVVIYKDSDRPSGIPERFSGSSSGTTVTLTISGVQAEDEADYYCQSADSSGTYQVFGTGTKVSVL
B14: antibody 528 (antibody, V domains shown)
VH: QVQLVQSGAEVKKPGSSVKVSCKASGGTFNSNSISWVRQAPGQGLEWMGRIIPILDITMYARKFQGRVTISADKSTGTAYMDLSSLRSEDTAVYYCATDRDDSSGDYYYGMDVWGQGTTVTVSS
VL: DIQMTQSPSSLSASVGDRVTITCRASLSISNYLNWYQQKPGKAPNLLIYAASTLQSGVPSRFSGSGSGTDFTLTISSLQPEDFATYYCQQTYITRWTFGQGTKVEIK
notes: also called mAb 528
B15: antibody 535 (antibody, V domains shown)
VH: EVQLVESGGGLIQPGGSLRLSCAASGFTVSSNYMSWVRQAPGKGLEWVSVIYSGGSTYYADSVKGRFTISRDNSKNTLYLQMNSLRAEDTAVYYCARDLTEEGDFWSASSYRRYYYYGMDVWGQGTTVTVSS
VL: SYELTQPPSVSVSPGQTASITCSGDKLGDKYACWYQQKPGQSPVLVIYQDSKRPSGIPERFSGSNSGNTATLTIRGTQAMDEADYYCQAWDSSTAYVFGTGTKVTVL
B16: antibody 525 (antibody, V domains shown)
VH: QVQLVESGGGVVQPGRSLRLSCAASGFTFSSYAMHWVRQAPGKGLEWVTVISYNGRNKYYADSVKGRFTISRDNSKNTLYLQMNSLRAEDTAVYWCAREGLGAIVVGLDYWGQGTLVIVSS
VL: not shown
B17: antibody 530 (antibody, V domains shown)
VH: EVQLVESGGGLVQPGGSLRLSCAASGFTFSSYWMSWVRQAPGKGLEWVANIKQDGSEKYYVDSVKGRFTISRDNAKNSLYLQMNSLRAEDTAVYYCAREPQLWSEYYFDYWGQGTLVTVSS
VL: DIQMTQSPSSLSASVGDRVTITCRASQGISSWLAWYQQKPEKAPKSLIYAASSLQSGVPSRFSGSGSGTDFTLTISSLQPEDFATYYCQQYNSYPPTFGQGTRLEIK
notes: also called mAb 530
B18: antibody 554 (antibody, V domains shown)
VH: QVQLVESGGGVVQPGRSLRLSCAASGFTFSSYAMHWVRQAPGKGLEWVAVISYDGSNKYYADSVKGRFTISRDNSKNTLYLQMNSLRAEDTAVYYCARPQGGNYYYYGMDVWGQGTTVTVSS
VL: B17 VL with L11V, E41G, S46L, Y91A, Y94F, P96L, Q100G, R103K, L104V
B19: antibody 559 (antibody, V domains shown)
VH: QVQLQESGPGLVKLSETLSLTCTVSGYSISSGYYWGWIRQPPGKGLEWIGSIYHSGSTYYNPSLKSRVTISVDTSKNQFSLKLSSVTAADTAVYYCAREETLGSSWYESYIDYWGQGTLVTVSS
VL: B11 VL with N75S, G92S, L97P, Y98R, T102G, V106L
B20: antibody 557 (antibody, V domains shown)
VH: QVQLVESGGGVVQPGRSLRLSCAASGFTFSSYAMHWVRQAPGKGLEWVAVISYDGSNKYYADSVKGRFTISRDNSKNTLYLQMNSLRAEDTAVYYCARMYSGSYRGGFDYWGQGTLVTVSS
VL: not shown
B21: antibody 558 (antibody, V domains shown)
VH: B20 VH with M99G, Y100Q, S101G, S103G, R105Y, G106Y, F108M, Y110V, L116T
VL: QSALTQPASVSGSPGQSITISCTGTSSDVGGYNYVSWYQQHPGKAPKLMIYDVSNRPSGVSNRFSGSKSGNTASLTISGLQAEDEADYYCSSYTSSSTLYVFGTGTKVTVL
B22: antibody 562 (antibody, V domains shown)
VH: B20 VH with M99A, Y100S, S103G, R105Q, G107P, Y110P
VL: QSALTQPASVSGSPGQSITISCTGTSSDVGGYNYVSWYQQHPGKAPKLMIYDVSNRPSGVSNRFSGSKSGNTASLTISGLQAEDEADYYCSSYTSSSTLLYVFGTGTKVTVLG
B23: antibody 585 (antibody, V domains shown)
VH: QVQLVESGGGVVQPGRSLRLSCAASGFTFATYAMHWVRQAPGKGLEWVALISHDGSNKHYADSVKGRFTISRDNSKKTLYLQMNSLRAEGTAIYYCARESLEAAAPPFDYWGQGTLVTVSS
VL: SYELTQPPSVSVSPGQTATIICSGDKLGEKYASWYQQKPGQSPALVIYQDRKRPSGIPERFSGSNSGNTATLTISGTQAMDEADYYCQAWDSSNSVVFGGGTKLTVP

These binders were tested against SARS-CoV spike protein (SARS-CoV, UniProt P59594 14-1190) (assay: not given).

Binder	median fluorescence intensity, fold over isotype control
B1	1.29 fold over isotype
B2	1.21 fold over isotype
B3	1.14 fold over isotype
B4	1.22 fold over isotype
B5	2.46 fold over isotype
B6	1.16 fold over isotype
B7	989 fold over isotype
B8	1.34 fold over isotype
B9	1.27 fold over isotype
B10	1.26 fold over isotype
B11	439 fold over isotype
B12	0.99 fold over isotype

These binders were tested against T1, SARS-CoV-2 spike protein (SARS-CoV-2, UniProt P0DTC2 14-1208) (assay: HT-SPR, Carterra LSA; mAb coupled to chip, antigen injected; 1:1 fit).
T1 construct: also called SARS-CoV-2 S protein; antigen of interest

Binder	Kd	koff	kon
B13	0.0393 nM	1.01e-05 s⁻¹	258000 M⁻¹ s⁻¹
B14	0.509 nM	0.000285 s⁻¹	560000 M⁻¹ s⁻¹
B15	0.395 nM	4.15e-05 s⁻¹	105000 M⁻¹ s⁻¹
B16	0.107 nM	3.94e-05 s⁻¹	367000 M⁻¹ s⁻¹
B17	2.19 nM	0.000209 s⁻¹	95400 M⁻¹ s⁻¹
B18	0.129 nM	3.5e-05 s⁻¹	271000 M⁻¹ s⁻¹
B19	32.2 nM	0.000631 s⁻¹	19600 M⁻¹ s⁻¹
B20	0.144 nM	3.35e-05 s⁻¹	233000 M⁻¹ s⁻¹
B21	0.237 nM	8.94e-05 s⁻¹	378000 M⁻¹ s⁻¹
B22	0.0211 nM	1.16e-05 s⁻¹	548000 M⁻¹ s⁻¹
B23	0.248 nM	4.59e-05 s⁻¹	185000 M⁻¹ s⁻¹
